{
  "source": "the nanobody polyreactivity screen of Harvey et al. (2022)",
  "data": [
    {"experiment": "yeast display, Sf9 membrane polyspecificity reagent, FACS + sequencing; frameworks hold sequencing errors", "summary_of_the_method": "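Galactose-induced (36–48 hours) yeast carrying a synthetic nanobody display library were exposed to 10% biotinylated, detergent-solubilized Sf9 membrane reagent at 4 °C for 1 hour. FACS followed streptavidin microbead enrichment, using low and high (top ~1%) gates for expression (anti-HA) and reagent binding (streptavidin). Colony PCR, MiSeq 2 × 250 sequencing and CDR-length filtering followed. Labels for polyreactivity reflect the gate of origin.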", "values": [
      {"sequence": "QVQLVESGGGLVQAGGSLRLRCASSGGIFVPYAMGWYRQAPGKERELVAGITSGGSTNYADSVKGRFSISRDNAKNTVYLQMNRLKPEDTAVYYCAARRRPGGRYKSRVWYDYWGLGTQVTVSS", "polyreactivity (PSR sort gate)": "high polyreactivity"},
      {"sequence": "QVQLVESGGGLVQAGGSLRLSCAASGIIFNDYAMGWYRQAPGKERELVAAISWSGGRTYYADSVKGRFTISRDNAKNTVYLQMNSLKPEDTAVYYCNARARQYSAFPVVERNYWGQGTQVTVSS", "polyreactivity (PSR sort gate)": "high polyreactivity"},
      {"sequence": "QVQLVESGGGLVQAGGSLRLSCAASGSIFSYNVIGWYRQAPGKEREMVATITVDGTSTYYADSVKGRFTISRDNAKNTVYLQMNSLKPEDTAVYDCAADETASFTQEYEEMEYWGQGTQVTVSS", "polyreactivity (PSR sort gate)": "low polyreactivity"},
      {"sequence": "QVQLVESGGGLVQAGGSLRLSCAASGFTFESYAMGWYRQAPGKERELVAAISWNGGSSYYADSVKGRFTISRDNAKNTVYLQMNSLKPEDTAVYYCAARGRAPRFRRIGYDYWGQGTQVSVSS", "polyreactivity (PSR sort gate)": "high polyreactivity"},
      {"sequence": "QVQLVESGGGLVQAGGSLRLSCAASGRIFYNYAMGWYRQAPGKERELVASISNSGGSTYYADSVKGRFTISRDNAKNTVYLQMNSLKPEDTAVYYCARRYYYYTTYRYDYWGQGTQVSVSS", "polyreactivity (PSR sort gate)": "high polyreactivity"},
      {"sequence": "QVQLVESGGGLVQAGGSLRLSCAASGRIFRINGMGWYRQAPGKEREFVAAITSGGGTYYADSVKGRFTISRDNAKNTVYLQMNSLKPEDTAVYYCAVRRRYGDDYWGQGTQVTVSS", "polyreactivity (PSR sort gate)": "high polyreactivity"},
      {"sequence": "QVQLVESGGGLVQAGGSLRLSCAASGLIFYLYTMGWYRQAPGKERELVAAISRSGTITYYADSVKGRFTISRDNAKNSVYLQMNSLKPEDTAVYYCAATYTYKIGTRYDYWGQGTQVNVSS", "polyreactivity (PSR sort gate)": "high polyreactivity"},
      {"sequence": "QVQLVESWGGLVQAGGSLRLSCAASGSIFFPNAMGWYRQAPWKERELVAAIRGGTNTYYADSVKGRFTISRDNAKNTVYLQMNSLKPEDTAVYYCAARRSSHWFTYDYWGQGTQVTVSS", "polyreactivity (PSR sort gate)": "high polyreactivity"},
      {"sequence": "QVQLVESGGGLVQAGGSLRLSCAASGSIFVKNVMGWYRQAPGKERELVAAISRGSSTYYADSVKGRFTISRDNAKNTVYLQMNSLKPEDTAVYYCAARGPYRLRNDEAFDYWGQGTQVTVSS", "polyreactivity (PSR sort gate)": "low polyreactivity"},
      {"sequence": "QVQLVESGGGLVQAGGSLRLSCAASGRIFYYNSKGWYRQAPGKERELVAAITSGDNTKYADSVKGRFTISRDKAKNTVYLQMNSLKPEDTAVYYCAARRYAPYQRRMDYWGQGTQVTVSS", "polyreactivity (PSR sort gate)": "high polyreactivity"},
      {"sequence": "QVQLVESGGGLVQEGGSLRLSCAASGILVYNAMGWYRQAPGTERELVAAISARGGRTYYADSVKGRFTISRDNAQNTDSLQMNSLKPEDTAVYYCASRSSKSRTYDYWGQGTQVTVSS", "polyreactivity (PSR sort gate)": "high polyreactivity"},
      {"sequence": "QVQLVESGGGLVQAGGSLRLSCAASGRTFVIYDMGWYRQAPGKERELVAGITRSGGSTYADSVKGRFTISRDNAKNTVYLQMNSLKPEDTAVYYCARRKLYHKSPYDYWGQGTQVTVSS", "polyreactivity (PSR sort gate)": "low polyreactivity"},
      {"sequence": "QVQLVESGGGLVQAGGSLRLSCAASGRIFASYAMGWYRQAPGKERELVASISWGGGSRTYADSVKGRFTISRDNAKNTVYLQMNSLKPEDTAVYYCAADVHYTFGMDYWGQGTQVTVSS", "polyreactivity (PSR sort gate)": "high polyreactivity"},
      {"sequence": "QVQLVESGGGLVQAGGSLRLSCAAAGSIFGSYAMGWSRQAPGKERELVPAINSGGATIYSDSVKGRFTISRDNAKNTVYLQMNSLKPEDTAVYYCNAPGRRFNRYGGDYWGQGTQVTVSS", "polyreactivity (PSR sort gate)": "high polyreactivity"},
      {"sequence": "QVQHVESGGGLVQAGGSLRLSCAASGSTFYINAKGWYRQAPGKEREFVASISWRGGSTYADSVKGRFTISRDNAKNTVYLQMNSLKPEDTAVYFCAAEFDVYSHHWITSYDYWGQGTQVTVSS", "polyreactivity (PSR sort gate)": "high polyreactivity"},
      {"sequence": "QVQLVESGGGLVQAGGSLRLICAASGRPSVLMLMGLYRQEPGKERELVAAIDDSTDTTYYADSVKGRFTISRDNAKNTVYLQMNSLKPDVTAGYYCADEEGYVKFSGSWSYGYDYWGQGTQVTVSS", "polyreactivity (PSR sort gate)": "high polyreactivity"}
    ]}
  ]
}
